# Measured values reported in US20220096653A1, “CONJUGATE COMPRISING LIGAND AND CEACAM5 ANTIBODY FAB FRAGMENT” (ASTELLAS PHARMA INC., priority 2019, published 2022).
# Like-named read-outs stand apart in the source and are kept apart here.
# What was measured:
# [1] = target: human cancer-specific MUC1 peptide (PTL 1) (human); experiment: ELISA on immobilised human cancer-specific MUC1 peptide, 4-parameter fit, duplicate (Example 6-2)
# [2] = mouse, in vivo
# Description: (§1) A Gd-labeled conjugate of the conjugate containing a peptide linker produced in one of the above Examples was administered from the tail vein of mice (BALB/c or BALB/c nu/nu) so that the protein mass was 0.02 mg (100 μL) per animal. After about 24 hours, the mice were sacrificed and the kidneys were removed, and the amount of Gd in the kidneys was measured using ICP-MS. The present test was carried out in 3 cases in each group, the mean value of the 3 cases was calculated, and the amount of Gd contained per kidney after administration was shown as a percentage (% of dose/tissue) of the total amount of Gd administered.
# (§2) Based on the percentage of the control conjugate (% of dose/tissue), the proportion of decrease in the amount of Gd contained in the kidneys of each of the conjugates having a peptide linker was determined and shown in Table 28.
# [3] = design: species or system mice (BALB/c nu/nu); conditions: mouse, in vivo
# Description: A Gd-labeled conjugate of the conjugate containing a peptide linker produced in one of the above Examples was administered from the tail vein of tumor-bearing mice so that the protein mass was 0.02 mg (100 μL) per animal. As the tumor-bearing mice used in the present Example, mice (BALB/c nu/nu) that were in a tumor-bearing state brought about by transplanting human colorectal cancer cell line LS174T cells (ATCC(registered trademark); CL-188) at 2.0 to 5.0×10^6 cells/mouse subcutaneously on the back before administration of the sample were used. 24 hours after administration of the sample, the mice were sacrificed, the kidneys and the tumor were removed, and the amounts of Gd in the kidneys and in the tumor were measured using ICP-MS. The present test was carried out in 3 cases in each group, and the mean value of the 3 cases was calculated. The amount of Gd contained per kidney after administration was shown as a percentage of the amount of Gd administered (% of dose/tissue), and the amount of Gd contained per g of tumor tissue was shown as a percentage of the total amount of Gd administered (% of dose/g).
# [4] = Kidney accumulation evaluation test of Gd-labeled conjugates, normal mice (Example 4-1)
# Description: as §1, §2
molecule,measurement,setting,value
"[Gd/DOTA-NH-CH2-(1,4-Ph)-NH-C(═O)-Met-Ile-NH-(CH2)2-Z1(#N)]p-Fab^5 (Fab, V domains shown, labeling may sit on this chain; sites not stated; labeling portion (MW 1074) on amino groups of the Fab, sites and chain not stated; 1-2 per Fab by MS; Gln 1 pyroglutamic acid as Fab^5 is defined in paragraph 370) VH: QVQLVQSGAEVKKPGASVKVSCKASGYTFTNYGLSWVRQAPGQGLEWMGENHPGSGIIYHNEKFRGRVTLTADRSTSTAYMELSSLRSEDTAVYYCARSSGTRGFDYWGQGTLVTVSS VL: DVVMTQTPLSLSVTPGQPASISCRSSQSIVHSNGNTYLEWYLQKPGQSPQLLIYRVSNRFSGVPDRFSGSGSGTDFTLKISRVEAEDVGVYYCFQGSHGPWTFGQGTKLEIKR",EC50,[1],0.08 nM
"Ex-No 109, conjugate of Fab^5 (structure given only as drawing CHEM-US-00166) (Fab, V domains shown, labeling may sit on this chain; sites not stated; low molecular weight molecule (MW 1216) bound to the Fab, sites and chain not stated; 1-2 per Fab by MS; Gln 1 pyroglutamic acid as Fab^5 is defined in paragraph 370) VH: QVQLVQSGAEVKKPGASVKVSCKASGYTFTNYGLSWVRQAPGQGLEWMGENHPGSGIIYHNEKFRGRVTLTADRSTSTAYMELSSLRSEDTAVYYCARSSGTRGFDYWGQGTLVTVSS VL: DVVMTQTPLSLSVTPGQPASISCRSSQSIVHSNGNTYLEWYLQKPGQSPQLLIYRVSNRFSGVPDRFSGSGSGTDFTLKISRVEAEDVGVYYCFQGSHGPWTFGQGTKLEIKR",EC50,[1],0.08 nM
"Ex-No 111, conjugate of Fab^5 (structure given only as drawing CHEM-US-00168) (Fab, V domains shown, labeling may sit on this chain; sites not stated; low molecular weight molecule (MW 1391) bound to the Fab, sites and chain not stated; 1-2 per Fab by MS; Gln 1 pyroglutamic acid as Fab^5 is defined in paragraph 370) VH: QVQLVQSGAEVKKPGASVKVSCKASGYTFTNYGLSWVRQAPGQGLEWMGENHPGSGIIYHNEKFRGRVTLTADRSTSTAYMELSSLRSEDTAVYYCARSSGTRGFDYWGQGTLVTVSS VL: DVVMTQTPLSLSVTPGQPASISCRSSQSIVHSNGNTYLEWYLQKPGQSPQLLIYRVSNRFSGVPDRFSGSGSGTDFTLKISRVEAEDVGVYYCFQGSHGPWTFGQGTKLEIKR",EC50,[1],0.16 nM
"Ex-No 102, conjugate of Fab^5 (structure given only as drawing CHEM-US-00161) (Fab, V domains shown, labeling may sit on this chain; sites not stated; low molecular weight molecule (MW 1278) bound to the Fab, sites and chain not stated; 1-2 per Fab by MS; Gln 1 pyroglutamic acid as Fab^5 is defined in paragraph 370) VH: QVQLVQSGAEVKKPGASVKVSCKASGYTFTNYGLSWVRQAPGQGLEWMGENHPGSGIIYHNEKFRGRVTLTADRSTSTAYMELSSLRSEDTAVYYCARSSGTRGFDYWGQGTLVTVSS VL: DVVMTQTPLSLSVTPGQPASISCRSSQSIVHSNGNTYLEWYLQKPGQSPQLLIYRVSNRFSGVPDRFSGSGSGTDFTLKISRVEAEDVGVYYCFQGSHGPWTFGQGTKLEIKR",EC50,[1],0.07 nM
"[Gd/DOTA-NH-CH2-(1,4-Ph)-NH-C(═O)-Met-Ile-NH-(CH2)2-Z1(#S)]p-Fab^5 (Fab, V domains shown, labeling may sit on this chain; sites not stated; labeling portion (MW 1175) bound via 2-iminothiolane-treated amino groups of the Fab, sites and chain not stated; 1-3 per Fab by MS; Gln 1 pyroglutamic acid as Fab^5 is defined in paragraph 370) VH: QVQLVQSGAEVKKPGASVKVSCKASGYTFTNYGLSWVRQAPGQGLEWMGENHPGSGIIYHNEKFRGRVTLTADRSTSTAYMELSSLRSEDTAVYYCARSSGTRGFDYWGQGTLVTVSS VL: DVVMTQTPLSLSVTPGQPASISCRSSQSIVHSNGNTYLEWYLQKPGQSPQLLIYRVSNRFSGVPDRFSGSGSGTDFTLKISRVEAEDVGVYYCFQGSHGPWTFGQGTKLEIKR",EC50,[1],0.09 nM
"Ex-No 105, conjugate of Fab^5 (structure given only as drawing CHEM-US-00163) (Fab, V domains shown, labeling may sit on this chain; sites not stated; low molecular weight molecule (MW 1190) bound to the Fab, sites and chain not stated; 1-3 per Fab by MS; Gln 1 pyroglutamic acid as Fab^5 is defined in paragraph 370) VH: QVQLVQSGAEVKKPGASVKVSCKASGYTFTNYGLSWVRQAPGQGLEWMGENHPGSGIIYHNEKFRGRVTLTADRSTSTAYMELSSLRSEDTAVYYCARSSGTRGFDYWGQGTLVTVSS VL: DVVMTQTPLSLSVTPGQPASISCRSSQSIVHSNGNTYLEWYLQKPGQSPQLLIYRVSNRFSGVPDRFSGSGSGTDFTLKISRVEAEDVGVYYCFQGSHGPWTFGQGTKLEIKR",EC50,[1],0.11 nM
"Ex-No 103, conjugate of Fab^5 (structure given only as drawing CHEM-US-00162) (Fab, V domains shown, labeling may sit on this chain; sites not stated; low molecular weight molecule (MW 1115) bound to the Fab, sites and chain not stated; 1-2 per Fab by MS; Gln 1 pyroglutamic acid as Fab^5 is defined in paragraph 370) VH: QVQLVQSGAEVKKPGASVKVSCKASGYTFTNYGLSWVRQAPGQGLEWMGENHPGSGIIYHNEKFRGRVTLTADRSTSTAYMELSSLRSEDTAVYYCARSSGTRGFDYWGQGTLVTVSS VL: DVVMTQTPLSLSVTPGQPASISCRSSQSIVHSNGNTYLEWYLQKPGQSPQLLIYRVSNRFSGVPDRFSGSGSGTDFTLKISRVEAEDVGVYYCFQGSHGPWTFGQGTKLEIKR",EC50,[1],0.08 nM
"[Gd/DOTA-[2,5-(1,2,3,4-tetrahydroisoquinoline)]-C(═O)-Met-Gly-Lys*-C(═S)-NH-(1,4-Ph)-NH-C(═S)]p-Fab^5 (Fab, V domains shown, labeling may sit on this chain; sites not stated; labeling portion (MW 1228) on amino groups of the Fab, sites and chain not stated; 1-2 per Fab by MS; Gln 1 pyroglutamic acid as Fab^5 is defined in paragraph 370) VH: QVQLVQSGAEVKKPGASVKVSCKASGYTFTNYGLSWVRQAPGQGLEWMGENHPGSGIIYHNEKFRGRVTLTADRSTSTAYMELSSLRSEDTAVYYCARSSGTRGFDYWGQGTLVTVSS VL: DVVMTQTPLSLSVTPGQPASISCRSSQSIVHSNGNTYLEWYLQKPGQSPQLLIYRVSNRFSGVPDRFSGSGSGTDFTLKISRVEAEDVGVYYCFQGSHGPWTFGQGTKLEIKR",EC50,[1],0.19 nM
"Ex-No 110, conjugate of Fab^5 (structure given only as drawing CHEM-US-00167) (Fab, V domains shown, labeling may sit on this chain; sites not stated; low molecular weight molecule (MW 1201) bound to the Fab, sites and chain not stated; 1-2 per Fab by MS; Gln 1 pyroglutamic acid as Fab^5 is defined in paragraph 370) VH: QVQLVQSGAEVKKPGASVKVSCKASGYTFTNYGLSWVRQAPGQGLEWMGENHPGSGIIYHNEKFRGRVTLTADRSTSTAYMELSSLRSEDTAVYYCARSSGTRGFDYWGQGTLVTVSS VL: DVVMTQTPLSLSVTPGQPASISCRSSQSIVHSNGNTYLEWYLQKPGQSPQLLIYRVSNRFSGVPDRFSGSGSGTDFTLKISRVEAEDVGVYYCFQGSHGPWTFGQGTKLEIKR",EC50,[1],0.19 nM
"Ex-No 106, conjugate of Fab^5 (structure given only as drawing CHEM-US-00164) (Fab, V domains shown, labeling may sit on this chain; sites not stated; low molecular weight molecule (MW 1380) bound to the Fab, sites and chain not stated; 1-3 per Fab by MS; Gln 1 pyroglutamic acid as Fab^5 is defined in paragraph 370) VH: QVQLVQSGAEVKKPGASVKVSCKASGYTFTNYGLSWVRQAPGQGLEWMGENHPGSGIIYHNEKFRGRVTLTADRSTSTAYMELSSLRSEDTAVYYCARSSGTRGFDYWGQGTLVTVSS VL: DVVMTQTPLSLSVTPGQPASISCRSSQSIVHSNGNTYLEWYLQKPGQSPQLLIYRVSNRFSGVPDRFSGSGSGTDFTLKISRVEAEDVGVYYCFQGSHGPWTFGQGTKLEIKR",EC50,[1],0.1 nM
"[Gd/DOTA-NH—(CH2CH2O)3—CH2—C(═O)—NH—CH2-(1,3-Ph)-C(═O)-Met-Gly-Lys*-Z2(#N)]p-Fab^2 (conjugate) heavy: EVQLVESGGGLVQPGGSLRLSCAASGFNIRDTYMHWVRQAPGKGLEWVARIDPANGNSRYVPKFQGRFTISADTSRNTAYLQMNSLRAEDTAVYYCAPFGYYVSDYAMAYWGQGTLVTVSSASTKGPSVFPLAPSSKSTSGGTAALGCLVKDYFPEPVTVSWNSGALTSGVHTFPAVLQSSGLYSLSSVVTVPSSSLGTQTYICNVNHKPSNTKVDKKVEPKSCD light: DIQLTQSPSSLSASVGDRVTITCRAGESVDIFGVGFLHWYQQKPGKAPKLLIYRASNLESGIPSRFSGSGSRTDFTLTISSLQPEDFATYYCQQTNEDPYTFGQGTKVEIKRTVAAPSVFIFPPSDEQLKSGTASVVCLLNNFYPREAKVQWKVDNALQSGNSQESVTEQDSKDSTYSLSSTLTLSKADYEKHKVYACEVTHQGLSSPVTKSFNRGEC",% of dose/tissue (amount of Gd contained per kidney),[2],6.8 % of dose/tissue
same,Proportion of decrease (amount of Gd contained in the kidneys),[2],78.0%
same,Renal residual amount (tumor-bearing mice) % of dose/tissue,[3],8.40 % of dose/tissue
same,Renal residual amount (tumor-bearing mice) Proportion of decrease,[3],67.48%
"[Gd/DOTA-NH—CH2-(1,3-Ph)-C(═O)-Met-Gly-Lys*-Z2(#S)]p-Fab^2 (conjugate) heavy: EVQLVESGGGLVQPGGSLRLSCAASGFNIRDTYMHWVRQAPGKGLEWVARIDPANGNSRYVPKFQGRFTISADTSRNTAYLQMNSLRAEDTAVYYCAPFGYYVSDYAMAYWGQGTLVTVSSASTKGPSVFPLAPSSKSTSGGTAALGCLVKDYFPEPVTVSWNSGALTSGVHTFPAVLQSSGLYSLSSVVTVPSSSLGTQTYICNVNHKPSNTKVDKKVEPKSCD light: DIQLTQSPSSLSASVGDRVTITCRAGESVDIFGVGFLHWYQQKPGKAPKLLIYRASNLESGIPSRFSGSGSRTDFTLTISSLQPEDFATYYCQQTNEDPYTFGQGTKVEIKRTVAAPSVFIFPPSDEQLKSGTASVVCLLNNFYPREAKVQWKVDNALQSGNSQESVTEQDSKDSTYSLSSTLTLSKADYEKHKVYACEVTHQGLSSPVTKSFNRGEC",% of dose/tissue (amount of Gd contained per kidney),[2],12.9 % of dose/tissue
same,Proportion of decrease (amount of Gd contained in the kidneys),[2],58.3%
same,Renal residual amount (tumor-bearing mice) % of dose/tissue,[3],12.33 % of dose/tissue
same,Renal residual amount (tumor-bearing mice) Proportion of decrease,[3],52.26%
"[Gd/4arm-DOTA-CH2-(1,4-Ph)-NH—C(═S)—NH—CH2-(1,3-Ph)-C(═O)-Met-Gly-Lys*-Z2(#S)]p-Fab^2 (conjugate) heavy: EVQLVESGGGLVQPGGSLRLSCAASGFNIRDTYMHWVRQAPGKGLEWVARIDPANGNSRYVPKFQGRFTISADTSRNTAYLQMNSLRAEDTAVYYCAPFGYYVSDYAMAYWGQGTLVTVSSASTKGPSVFPLAPSSKSTSGGTAALGCLVKDYFPEPVTVSWNSGALTSGVHTFPAVLQSSGLYSLSSVVTVPSSSLGTQTYICNVNHKPSNTKVDKKVEPKSCD light: DIQLTQSPSSLSASVGDRVTITCRAGESVDIFGVGFLHWYQQKPGKAPKLLIYRASNLESGIPSRFSGSGSRTDFTLTISSLQPEDFATYYCQQTNEDPYTFGQGTKVEIKRTVAAPSVFIFPPSDEQLKSGTASVVCLLNNFYPREAKVQWKVDNALQSGNSQESVTEQDSKDSTYSLSSTLTLSKADYEKHKVYACEVTHQGLSSPVTKSFNRGEC",Proportion of decrease (amount of Gd contained in the kidneys),"[4]; based on control conjugate Ex-No. 47, about 24 hours",72.9%
same,% of dose/tissue (amount of Gd contained per kidney),"[4]; tail vein, 0.02 mg protein per animal, about 24 hours, ICP-MS, mean of 3 cases",8.4 % of dose/tissue
"[Gd/DOTA-NH—(CH2CH2O)3—CH2—C(═O)—NH—CH2-(1,3-Ph)-C(═O)-Met-Gly-Lys*-Z2(#S)]p-Fab^2 (conjugate) heavy: EVQLVESGGGLVQPGGSLRLSCAASGFNIRDTYMHWVRQAPGKGLEWVARIDPANGNSRYVPKFQGRFTISADTSRNTAYLQMNSLRAEDTAVYYCAPFGYYVSDYAMAYWGQGTLVTVSSASTKGPSVFPLAPSSKSTSGGTAALGCLVKDYFPEPVTVSWNSGALTSGVHTFPAVLQSSGLYSLSSVVTVPSSSLGTQTYICNVNHKPSNTKVDKKVEPKSCD light: DIQLTQSPSSLSASVGDRVTITCRAGESVDIFGVGFLHWYQQKPGKAPKLLIYRASNLESGIPSRFSGSGSRTDFTLTISSLQPEDFATYYCQQTNEDPYTFGQGTKVEIKRTVAAPSVFIFPPSDEQLKSGTASVVCLLNNFYPREAKVQWKVDNALQSGNSQESVTEQDSKDSTYSLSSTLTLSKADYEKHKVYACEVTHQGLSSPVTKSFNRGEC",% of dose/tissue (amount of Gd contained per kidney),[2],7.0 % of dose/tissue
same,Proportion of decrease (amount of Gd contained in the kidneys),[2],77.4%
same,Renal residual amount (tumor-bearing mice) % of dose/tissue,[3],9.40 % of dose/tissue
same,Renal residual amount (tumor-bearing mice) Proportion of decrease,[3],63.61%
